{
  "source": "paper PMC2718843",
  "key": {"[1]": {"target": "gp120 from CC1/85 cl.6 (HIV-1)"}, "[2]": {"target": "gp120 from CC1/85 cl.7 (HIV-1)"}, "[3]": {"target": "gp120 from CC101.19 cl.7 (HIV-1)"}, "[4]": {"target": "gp120 from D1/85.16 cl.23 (HIV-1)"}},
  "data": [
    {"substance": "sCD4 (domain or fragment)", "values": [
      {"measurement": "IC50 for inhibition of replication of the clonal virus in PBMC (p24 antigen); inhibits gp120-CD4 binding", "setting": "[1]", "value": "> 25", "unit": "µg/mL"},
      {"measurement": "IC50 for inhibition of replication of the clonal virus in PBMC (p24 antigen); inhibits gp120-CD4 binding", "setting": "[2]", "value": 0.1, "unit": "µg/mL"},
      {"measurement": "IC50 for inhibition of replication of the clonal virus in PBMC (p24 antigen); inhibits gp120-CD4 binding", "setting": "[3]", "value": 0.1, "unit": "µg/mL"},
      {"measurement": "IC50 for inhibition of replication of the clonal virus in PBMC (p24 antigen); inhibits gp120-CD4 binding", "setting": "[4]", "value": 10, "unit": "µg/mL"}
    ]}
  ]
}
